Laboratory results from patent US20230340151A1 (Pfizer, published 2023).
Changes are numbered by the printed parent chain. Like-named read-outs stand apart in the source and are kept apart here. Each block holds one binder with its values, some of them ahead of it.

Tests used:
[1] = biological target: Human CD3 on naive human T cells (human, UniProt P07766 23-207); test: cell-based or functional assay
Human CD3 epsilon-delta [2] = biological target: T1, Human CD3 epsilon-delta (human); test: SPR, recombinant human CD3
T1 construct: Single-chain epsilon-linker-delta with His6; also called huCD3
T1 chain: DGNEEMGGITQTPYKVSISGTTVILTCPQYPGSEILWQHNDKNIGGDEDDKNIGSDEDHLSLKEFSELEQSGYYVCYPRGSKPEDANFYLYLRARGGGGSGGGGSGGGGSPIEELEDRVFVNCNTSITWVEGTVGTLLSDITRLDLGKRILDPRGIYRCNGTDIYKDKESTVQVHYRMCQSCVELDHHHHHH

Human GUCY2C ECD-muIgG2a = biological target: T2, Human GUCY2C ECD-muIgG2a (human); test: huCD3-huGUCY2C sandwich ELISA (CD3 coated)
T2 construct: also called human GUCY2c ECD-mouse IgG2a Fc fusion protein; huGUCY2c-mIgG2a
T2 sequence (chain, as listed by the source limits assumed): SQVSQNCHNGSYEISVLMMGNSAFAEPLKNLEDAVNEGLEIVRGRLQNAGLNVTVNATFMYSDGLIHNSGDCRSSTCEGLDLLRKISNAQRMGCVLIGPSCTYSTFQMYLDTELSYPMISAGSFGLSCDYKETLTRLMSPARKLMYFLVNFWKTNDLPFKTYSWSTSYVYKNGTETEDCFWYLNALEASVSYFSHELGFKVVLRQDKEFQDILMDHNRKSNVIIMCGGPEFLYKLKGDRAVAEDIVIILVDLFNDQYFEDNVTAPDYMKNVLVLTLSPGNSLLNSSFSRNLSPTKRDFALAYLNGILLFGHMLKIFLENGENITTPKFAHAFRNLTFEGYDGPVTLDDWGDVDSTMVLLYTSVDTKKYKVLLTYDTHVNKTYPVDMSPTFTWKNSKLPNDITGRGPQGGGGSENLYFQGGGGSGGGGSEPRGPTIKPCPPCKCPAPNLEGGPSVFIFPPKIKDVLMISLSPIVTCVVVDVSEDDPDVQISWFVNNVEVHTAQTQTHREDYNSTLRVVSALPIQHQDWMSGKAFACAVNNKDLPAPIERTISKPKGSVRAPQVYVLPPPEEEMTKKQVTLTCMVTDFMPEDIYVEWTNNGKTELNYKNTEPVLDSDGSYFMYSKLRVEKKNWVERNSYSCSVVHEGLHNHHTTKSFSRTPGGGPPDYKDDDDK

[3] = biological target: T3, Human GUCY2c on tumor cells (T84, HT55) (human, UniProt P25092 24-1073); test: cell-based or functional assay
T3 sequence (P25092 24-1073 limits assumed): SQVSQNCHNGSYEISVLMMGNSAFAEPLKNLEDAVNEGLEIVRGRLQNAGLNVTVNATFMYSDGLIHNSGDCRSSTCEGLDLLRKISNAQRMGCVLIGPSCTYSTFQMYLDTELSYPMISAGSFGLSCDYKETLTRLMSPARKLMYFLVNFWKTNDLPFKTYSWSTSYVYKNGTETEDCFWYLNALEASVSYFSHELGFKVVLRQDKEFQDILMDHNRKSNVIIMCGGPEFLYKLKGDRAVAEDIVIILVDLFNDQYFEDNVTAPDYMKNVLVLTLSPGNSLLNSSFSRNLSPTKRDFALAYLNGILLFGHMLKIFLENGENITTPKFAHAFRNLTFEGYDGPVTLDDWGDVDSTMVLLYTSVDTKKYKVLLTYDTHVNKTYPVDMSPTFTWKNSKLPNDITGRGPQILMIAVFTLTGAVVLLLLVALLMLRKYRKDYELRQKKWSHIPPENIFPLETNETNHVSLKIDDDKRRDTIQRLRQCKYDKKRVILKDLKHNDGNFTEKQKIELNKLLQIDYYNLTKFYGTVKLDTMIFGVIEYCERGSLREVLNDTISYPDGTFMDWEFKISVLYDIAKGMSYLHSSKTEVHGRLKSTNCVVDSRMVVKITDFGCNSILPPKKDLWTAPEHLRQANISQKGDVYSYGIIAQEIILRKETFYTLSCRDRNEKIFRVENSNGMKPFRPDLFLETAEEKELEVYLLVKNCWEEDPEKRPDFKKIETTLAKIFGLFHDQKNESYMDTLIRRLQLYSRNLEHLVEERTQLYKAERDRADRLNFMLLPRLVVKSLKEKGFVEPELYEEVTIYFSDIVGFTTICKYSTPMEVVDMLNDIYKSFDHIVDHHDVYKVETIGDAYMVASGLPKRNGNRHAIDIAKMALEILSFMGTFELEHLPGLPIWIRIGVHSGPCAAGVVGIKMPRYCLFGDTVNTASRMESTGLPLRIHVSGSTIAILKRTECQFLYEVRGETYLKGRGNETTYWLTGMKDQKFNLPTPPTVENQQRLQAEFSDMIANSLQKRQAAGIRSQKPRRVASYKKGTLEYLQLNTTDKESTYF

[4] = biological target: T3, Human GUCY2c on tumor cells (T84, HT55); test: cell-based or functional assay; remark: listed apart in the source
[5] = biological target: T4, Human GUCY2C full length (SEQ ID NO: 224), recombinant protein (human, UniProt P25092 24-430, limits assumed); test: SPR, anti-human IgG capture, 25 C
T4 construct: also called huGUCY2C; biotinylated human GUCY2c
T4 sequence (P25092 24-430 F281L limits assumed): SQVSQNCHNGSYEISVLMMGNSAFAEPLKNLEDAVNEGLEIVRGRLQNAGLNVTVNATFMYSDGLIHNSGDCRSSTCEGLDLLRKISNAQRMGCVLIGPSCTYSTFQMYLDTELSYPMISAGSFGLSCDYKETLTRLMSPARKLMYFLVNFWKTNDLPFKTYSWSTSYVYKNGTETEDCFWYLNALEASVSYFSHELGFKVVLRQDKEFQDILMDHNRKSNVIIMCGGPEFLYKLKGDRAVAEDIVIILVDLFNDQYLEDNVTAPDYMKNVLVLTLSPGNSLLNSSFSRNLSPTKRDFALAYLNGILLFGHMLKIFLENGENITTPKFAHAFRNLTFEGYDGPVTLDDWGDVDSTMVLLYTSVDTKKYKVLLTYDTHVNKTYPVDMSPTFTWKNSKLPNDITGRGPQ

[6] = biological target: T5, Cynomolgus GUCY2C-ECD Cleaved (cynomolgus, UniProt P25092 24-430 (human entry)); test: SPR, anti-human IgG capture, 25 C
T5 construct: also called CyGUCY2C
T5 chain: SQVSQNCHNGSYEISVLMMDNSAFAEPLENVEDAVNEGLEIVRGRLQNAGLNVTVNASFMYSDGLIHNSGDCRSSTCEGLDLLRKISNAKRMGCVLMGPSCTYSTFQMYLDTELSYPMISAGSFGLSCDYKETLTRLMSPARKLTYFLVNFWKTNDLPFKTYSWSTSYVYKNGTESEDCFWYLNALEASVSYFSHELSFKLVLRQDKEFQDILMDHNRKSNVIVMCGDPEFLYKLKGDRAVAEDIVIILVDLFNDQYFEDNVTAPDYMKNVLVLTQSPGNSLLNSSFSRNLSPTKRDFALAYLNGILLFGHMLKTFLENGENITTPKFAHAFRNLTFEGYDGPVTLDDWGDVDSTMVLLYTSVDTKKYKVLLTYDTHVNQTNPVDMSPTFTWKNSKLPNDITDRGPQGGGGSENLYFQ

[7] = biological target: T6, Murine GUCY2C-ECD cleaved (mouse, UniProt Q3UWA6 20-433); test: SPR, anti-human IgG capture, 25 C
T6 sequence: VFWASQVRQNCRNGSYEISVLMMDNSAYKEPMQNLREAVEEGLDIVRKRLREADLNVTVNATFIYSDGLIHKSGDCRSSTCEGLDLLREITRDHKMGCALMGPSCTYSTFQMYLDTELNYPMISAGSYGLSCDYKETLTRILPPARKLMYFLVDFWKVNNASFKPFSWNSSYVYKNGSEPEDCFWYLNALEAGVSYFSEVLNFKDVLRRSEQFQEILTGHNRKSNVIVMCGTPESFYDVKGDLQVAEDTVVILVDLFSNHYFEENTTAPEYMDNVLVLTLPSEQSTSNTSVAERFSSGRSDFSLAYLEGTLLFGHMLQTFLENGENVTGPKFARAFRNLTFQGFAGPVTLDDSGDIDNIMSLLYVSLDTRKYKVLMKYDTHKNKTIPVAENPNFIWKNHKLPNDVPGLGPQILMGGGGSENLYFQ

Human CD3 epsilon-delta [8] = biological target: T1, Human CD3 epsilon-delta; test: SPR, anti-human IgG capture, 25 C
[9] = biological target: T4, Human GUCY2C full length (SEQ ID NO: …); test: SPR, GUCY2c directly immobilized, 25 C
[10] = biological target: T6, Murine GUCY2C-ECD cleaved; test: SPR, GUCY2c directly immobilized, 25 C
[11] = biological target: T7, Cynomolgus CD3 epsilon-delta (cynomolgus); test: SPR, printed anti-His capture, 25 C (Table 33D)
T7 chain: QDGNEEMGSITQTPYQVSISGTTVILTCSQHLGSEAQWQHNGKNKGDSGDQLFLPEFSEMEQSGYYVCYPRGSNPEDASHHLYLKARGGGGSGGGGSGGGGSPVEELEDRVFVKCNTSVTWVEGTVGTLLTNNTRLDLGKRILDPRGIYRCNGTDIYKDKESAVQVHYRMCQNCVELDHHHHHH

Kd (Human CD3 epsilon-delta [2]): 63.5 nM
B3: GUCY2C-1678 (bispecific antibody)
chain 1: DIQLTQSPSSLSASVGDRVTITCRASESVDYYGSSLLQWYQQKPGKAPKLLIYAASKLASGVPSRFSGSGSGTDFTLTISSLQPEDFATYYCQQTRKAYTFGQGTKLEIKGGGSGGGGEVQLVESGGGLVQPGGSLRLSCAASGFTFSDYYMTWVRQAPGKGLEWVAFIRNQARGYTSDHNPSVKGRFTISRDNAKNSLYLQMNSLRAEDTAVYYCARDRPSYYVLDYWGQGTTVTVSSGCPPCPAPEAAGAPSVFLFPPKPKDTLMISRTPEVTCVVVDVSHEDPEVKFNWYVDGVEVHNAKTKPREEQYNSTYRVVSVLTVLHQDWLNGKEYKCKVSNKALPAPIEKTISKAKGQPREPQVCTLPPSREEMTKNQVSLWCLVKGFYPSDIAVEWESNGQPENNYKTTPPVLDSDGSFFLYSKLTVDKSRWQQGNVFSCSVMHEALHNHYTQKSLSLSPG
chain 2: DIQMTQSPSSLSASVGDRVTITCTSDQSLFNVRSGKNYLAWYQQKPGKAPKLLIYWASDRESGVPSRFSGSGSGTDFTLTISSLQPEDFATYYCKQSYDLFTFGGGTKVEIKGGGGSGGGGEVQLVESGGGLVQPGGSLRLSCAASGFTFSSYWMHWVRQAPGKGLEWIGEIKPSNELTNVHEKFKDRFTISVDKAKNSAYLQMNSLRAEDTAVYYCTRTITTTEGYWFFDVWGQGTLVTVSSGCPPCPAPEAAGAPSVFLFPPKPKDTLMISRTPEVTCVVVDVSHEDPEVKFNWYVDGVEVHNAKTKPREEQYNSTYRVVSVLTVLHQDWLNGKEYKCKVSNKALPAPIEKTISKAKGQPREPQVYTLPPCREEMTKNQVSLSCAVKGFYPSDIAVEWESNGQPENNYKTTPPVLDSDGSFFLVSKLTVDKSRWQQGNVFSCSVMHEALHNHYTQKSLSLSPG
In vitro Cytotoxicity (nM), T-cell retargeting assay [1]: 0.247 nM

Kd (Human CD3 epsilon-delta [2]): 78.6 nM
B4: GUCY2C-1680 (bispecific antibody)
chain 1: B3 chain 1
chain 2: B3 chain 2 with D26S, Q27E
In vitro Cytotoxicity (nM), T-cell retargeting assay [1]: 0.385 nM

Second part, the binder before the results:

B1: GUCY2C-1679 (bispecific antibody)
chain 1: B3 chain 1
chain 2: B3 chain 2 with D26S
In vitro Cytotoxicity (nM), T-cell retargeting assay [1]: 0.194 nM
Kd (Human CD3 epsilon-delta [2]): 72 nM

B2: GUCY2C-0250 (bispecific antibody)
chain 1: B3 chain 1 with S34T, L37M, K57N, L58V, A59E, A98V, Q172R
chain 2: DIQMTQSPSSLSASVGDRVTITCTSSQSLFNVRSRKNYLAWYQQKPGKAPKLLIYWASTRESGVPSRFSGSGSGTDFTLTISSLQPEDFATYYCKQSYDLFTFGGGTKVEIKGGGSGGGGEVQLVESGGGLVQPGGSLRLSCAASGYTFTSYWMHWVRQAPGKGLEWIGEIKPSNGLTNYIEKFKNRFTISVDKAKNSAYLQMNSLRAEDTAVYYCTRTITTTEGYWFFDVWGQGTLVTVSSGCPPCPAPEAAGAPSVFLFPPKPKDTLMISRTPEVTCVVVDVSHEDPEVKFNWYVDGVEVHNAKTKPREEQYNSTYRVVSVLTVLHQDWLNGKEYKCKVSNKALPAPIEKTISKAKGQPREPQVYTLPPCREEMTKNQVSLSCAVKGFYPSDIAVEWESNGQPENNYKTTPPVLDSDGSFFLVSKLTVDKSRWQQGNVFSCSVMHEALHNHYTQKSLSLSPG
EC50 (Human GUCY2C ECD-muIgG2a): 76.9 nM

B5: GUCY2C-0240 (bispecific antibody)
chain 1: DIQLTQSPSSLSASVGDRVTITCRASESVDNYGISFMNWFQQKPGKAPKLLIYAASNPGSGVPSRFSGSGSGTDFTLTISSLQPEDFATYYCQQSKEVPYTFGQGTKLEIKGGGSGGGGEVQLVESGGGLVQPGGSLRLSCAASGFTFSDYYMTWVRQAPGKGLEWVAFIRNRARGYTSDHNPSVKGRFTISRDNAKNSLYLQMNSLRAEDTAVYYCARDRPSYYVLDYWGQGTTVTVSSGCPPCPAPEAAGAPSVFLFPPKPKDTLMISRTPEVTCVVVDVSHEDPEVKFNWYVDGVEVHNAKTKPREEQYNSTYRVVSVLTVLHQDWLNGKEYKCKVSNKALPAPIEKTISKAKGQPREPQVCTLPPSREEMTKNQVSLWCLVKGFYPSDIAVEWESNGQPENNYKTTPPVLDSDGSFFLYSKLTVDKSRWQQGNVFSCSVMHEALHNHYTQKSLSLSPG
chain 2: DIVMTQSPDSLAVSLGERATINCKSSQSLFNVRSRKNYLAWYQQKPGQPPKLLISWASTRESGVPDRFSGSGSGTDFTLTISSLQAEDVAVYYCKQSYDLFTFGSGTKLEIKGGGSGGGGEVQLVESGGGLVQPGGSLRLSCAASGYTFTTYWMQWVRQAPGKGLEWIGAIYPGDGMTTYTQKFKDRFTISADKAKNSAYLQMNSLRAEDTAVYYCVRKGMDYWGQGTLVTVSSGCPPCPAPEAAGAPSVFLFPPKPKDTLMISRTPEVTCVVVDVSHEDPEVKFNWYVDGVEVHNAKTKPREEQYNSTYRVVSVLTVLHQDWLNGKEYKCKVSNKALPAPIEKTISKAKGQPREPQVYTLPPCREEMTKNQVSLSCAVKGFYPSDIAVEWESNGQPENNYKTTPPVLDSDGSFFLVSKLTVDKSRWQQGNVFSCSVMHEALHNHYTQKSLSLSPG
T84 tumor cell EC50 (T cell cytotoxicity, E:T 5:1) [3]: 0.53 nM
T84 tumor cell EC50 (T cell cytotoxicity, E:T 5:1) [4]: 0.53 nM
Kd [5]: 37.9 nM
koff [5]: 0.00364 s⁻¹
kon [5]: 96200 M⁻¹ s⁻¹
Kd [6]: 91.2 nM
koff [6]: 0.00234 s⁻¹
kon [6]: 26100 M⁻¹ s⁻¹
Kd [7]: 317 nM
koff [7]: 0.00336 s⁻¹
kon [7]: 10600 M⁻¹ s⁻¹
Kd (Human CD3 epsilon-delta [8]): 3.73 nM
koff (Human CD3 epsilon-delta [8]): 0.00129 s⁻¹
kon (Human CD3 epsilon-delta [8]): 347000 M⁻¹ s⁻¹
Kd [9]: 37.9 nM
koff [9]: 0.00364 s⁻¹
kon [9]: 96200 M⁻¹ s⁻¹
Kd [10]: 42.3 nM
koff [10]: 0.00515 s⁻¹
kon [10]: 122000 M⁻¹ s⁻¹
EC50 (Human GUCY2C ECD-muIgG2a): 0.0799 nM
Kd [11]: 4.71 nM
koff [11]: 0.00207 s⁻¹
kon [11]: 440000 M⁻¹ s⁻¹
